Measured values published in the RNAGym collection of RNA variant scans (doi:10.1093/molbev/msab373).

B1: Azoarcus group I ribozyme (parent)
chain: GUGCCUUGCGCCGGGAAACCACGCAAGGGAUGGUGUCAAAUUCGGCGAAACCUAAGCGCCCGCCCGGGCGUAUGGCAACGCCGAGCCAAGCUUCGGCGCCUGCGCCGAUGAAGGUGUAGAGACUAGACGGCACCCACCUAAGGCAAACGCUAUGGUGAAGGCAUAGUCCAGGGAGUGGCGAAAGUCACACAAACCGG

Variants of: B1
Assay: reverse-splicing fitness (ratio to wild type); higher = more active; in vitro selection; Mg2+ level not given
Procedure, shortened: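 An in vitro group I ribozyme library with randomized positions was T7-transcribed and gel-purified. In triplicate, 10 pmol RNA in EPPS pH 7.5 was reacted with 50 pmoles of a 30-nt RNA substrate for 1 h at 37 °C across several added MgCl2 levels (1–48 mM), then stopped with EDTA. Products were reverse transcribed from a substrate-complementary primer, PCR-amplified and sequenced (HiSeq 4000). Fitness is a variant's read proportion after selection over that before, normalised to wild type.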
C82U A111G A120G C150A C169G U176A showed a reverse-splicing fitness of 0.0186. Variant C82U A111G A120G C150A C169G U176C has a reverse-splicing fitness of 0.0197. With C82U A111G A120G C150A C169G U176G the reverse-splicing fitness was 0.00435. In the case of C82U A111G A120G C150A C169A U176C, the reverse-splicing fitness is reported as 0.0192. Work on C82U A111G A120G C150A C169A U176G yielded a reverse-splicing fitness of 0.00577. Work on C82U A111G A120G C150A C169A U176A yielded a reverse-splicing fitness of 0.0173. In the case of C82U A111G A120U A145G C150G U176A, the reverse-splicing fitness is reported as 0.00494. C82U A111G A120U A145G C150G U176C showed a reverse-splicing fitness of 0.00719. Work on C82U A111G A120U A145G C150G U176G yielded a reverse-splicing fitness of 0.00276. Variant C82U A111G A120G C169U U176A has a reverse-splicing fitness of 0.023. Work on C82U A111G A120G C169U U176C yielded a reverse-splicing fitness of 0.0174. Variant C82U A111G A120G C169U U176G has a reverse-splicing fitness of 0.00533. Work on C82U A111G A120U A145G C150A U176C yielded a reverse-splicing fitness of 0.00749. For C82U A111G A120U A145G C150A U176G, the reverse-splicing fitness was 0.00267. C82U A111G A120U A145G C150A U176A showed a reverse-splicing fitness of 0.00588. With C82U A111G A120U A145C C150A C169U U176A the reverse-splicing fitness was 0.00182. With C82U A111G A120U A145C C150A C169U U176C the reverse-splicing fitness was 0.00235. C82U A111G A120U A145C C150A C169U U176G gave a reverse-splicing fitness of 0.00196. C82U A111G A120U A145C C169A U176G showed a reverse-splicing fitness of 0.00179. Variant C82U A111G A120U A145C C169A U176A has a reverse-splicing fitness of 0.00176. Work on C82U A111G A120U A145C C169A U176C yielded a reverse-splicing fitness of 0.00194. C82U A111G A120U A145C C169G showed a reverse-splicing fitness of 0.00247. C82U A111G A120U A145C C169A showed a reverse-splicing fitness of 0.00224. Work on C82U A111G A120U A145C C169U yielded a reverse-splicing fitness of 0.00379. With C82U A111G A120G A145U C150A C169U U176G the reverse-splicing fitness was 0.0048. C82U A111G A120G A145U C150A C169U U176C gave a reverse-splicing fitness of 0.0142. In the case of C82U A111G A120G A145U C150A C169U U176A, the reverse-splicing fitness is reported as 0.019. Work on C82U A111G A120U A145G C150A C169G yielded a reverse-splicing fitness of 0.00549. Variant C82U A111G A120U A145G C150A C169U has a reverse-splicing fitness of 0.00348. Work on C82U A111G A120U A145G C150A C169A yielded a reverse-splicing fitness of 0.00559. Variant C82U A111G A120G C150U C169G U176A has a reverse-splicing fitness of 0.0144. Variant C82U A111G A120G C150U C169G U176G has a reverse-splicing fitness of 0.00447. For C82U A111G A120G C150U C169G U176C, the reverse-splicing fitness was 0.0174. Variant C82U A111G A120G C150A C169U U176G has a reverse-splicing fitness of 0.00765. With C82U A111G A120G C150A C169U U176A the reverse-splicing fitness was 0.0248. C82U A111G A120G C150A C169U U176C showed a reverse-splicing fitness of 0.0157. Variant C82U A111G A120U A145C C150G C169G U176G has a reverse-splicing fitness of 0.00197. In the case of C82U A111G A120U A145C C150G C169G U176A, the reverse-splicing fitness is reported as 0.00255. For C82U A111G A120U A145C C150G C169G U176C, the reverse-splicing fitness was 0.00251. C82U A111G A120U A145U C150G C169U U176C gave a reverse-splicing fitness of 0.00227. In the case of C82U A111G A120U A145U C150G C169U U176G, the reverse-splicing fitness is reported as 0.00213. C82U A111G A120U A145U C150G C169U U176A showed a reverse-splicing fitness of 0.00271. C82U A111G A120G C169A showed a reverse-splicing fitness of 0.0106. Work on C82U A111G A120G C169U yielded a reverse-splicing fitness of 0.0109. Work on C82U A111G A120G C169G yielded a reverse-splicing fitness of 0.0125. Variant C82U A111G A120G A145U C150G C169G has a reverse-splicing fitness of 0.00704. C82U A111G A120G A145U C150G C169A showed a reverse-splicing fitness of 0.00861. Work on C82U A111G A120G A145U C150G C169U yielded a reverse-splicing fitness of 0.00832. With C82U A111G A120U A145G C150G C169A the reverse-splicing fitness was 0.00768. Work on C82U A111G A120U A145G C150G C169U yielded a reverse-splicing fitness of 0.00654. In the case of C82U A111G A120U A145G C150G C169G, the reverse-splicing fitness is reported as 0.00671. Variant C82U A111G A120U A145U C150A C169U U176A has a reverse-splicing fitness of 0.00278. Variant C82U A111G A120U A145U C150A C169U U176G has a reverse-splicing fitness of 0.00158. With C82U A111G A120U A145U C150A C169U U176C the reverse-splicing fitness was 0.00216. In the case of C82U A111G A120G C150U C169A U176C, the reverse-splicing fitness is reported as 0.0129. For C82U A111G A120G C150U C169A U176A, the reverse-splicing fitness was 0.0143. Variant C82U A111G A120G C150U C169A U176G has a reverse-splicing fitness of 0.00504. With C82U A111G A120G C150U C169A the reverse-splicing fitness was 0.0105. Work on C82U A111G A120G C150U C169G yielded a reverse-splicing fitness of 0.0104. In the case of C82U A111G A120G C150U C169U, the reverse-splicing fitness is reported as 0.00996. Work on C82U A111G A120G A145U C169A yielded a reverse-splicing fitness of 0.00841. In the case of C82U A111G A120G A145U C169G, the reverse-splicing fitness is reported as 0.0113. For C82U A111G A120G A145U C169U, the reverse-splicing fitness was 0.0103. In the case of C82U A111G A120G A145U C169U U176C, the reverse-splicing fitness is reported as 0.0133. C82U A111G A120G A145U C169U U176A showed a reverse-splicing fitness of 0.0208. C82U A111G A120G A145U C169U U176G gave a reverse-splicing fitness of 0.00342. Work on C82U A111G A120U A145C C150G U176G yielded a reverse-splicing fitness of 0.00159. With C82U A111G A120U A145C C150G U176C the reverse-splicing fitness was 0.00405. In the case of C82U A111G A120U A145C C150G U176A, the reverse-splicing fitness is reported as 0.0026. For C82U A111G A120U A145U C150U U176G, the reverse-splicing fitness was 0.00372. C82U A111G A120U A145U C150U U176C gave a reverse-splicing fitness of 0.013. With C82U A111G A120U A145U C150U U176A the reverse-splicing fitness was 0.00763. Variant C82U A111G A120U A145U C150A C169A U176G has a reverse-splicing fitness of 0.00195. In the case of C82U A111G A120U A145U C150A C169A U176C, the reverse-splicing fitness is reported as 0.00251. In the case of C82U A111G A120U A145U C150A C169A U176A, the reverse-splicing fitness is reported as 0.00277. Variant C82U A111G A120G C150G has a reverse-splicing fitness of 0.00676. For C82U A111G A120G C150U, the reverse-splicing fitness was 0.0125. Work on C82U A111G A120G C150A yielded a reverse-splicing fitness of 0.00982. With C82U A111G A120G A145U C150A U176A the reverse-splicing fitness was 0.00974. Variant C82U A111G A120G A145U C150A U176C has a reverse-splicing fitness of 0.013. Work on C82U A111G A120G A145U C150A U176G yielded a reverse-splicing fitness of 0.00406. C82U A111G A120U A145C C150U C169G U176G gave a reverse-splicing fitness of 0.00171. For C82U A111G A120U A145C C150U C169G U176C, the reverse-splicing fitness was 0.00203. C82U A111G A120U A145C C150U C169G U176A gave a reverse-splicing fitness of 0.00322.
